Source: patent US20120316325, “DNA APTAMER […] BINDING TO pLDH (PLASMODIUM LACTATE DEHYDROGENASE)” (POSTECH ACADEMY-INDUSTRY FOUNDATION, published 2012)
Residue numbers refer to the chain shown, from its start.

B1: Aptamer #2 (ssDNA)
DNA: GAACTCATTGGCTGGAGGCGGCAGTACCGCTTGAGTTC
B2: Aptamer #1 (ssDNA)
DNA: GTTCGATTGGATTGTGCCGGAAGTGCTGGCTCGAAC
B3: Aptamer #1 loop 2 mutant (ssDNA)
DNA: B2 DNA with A22G, G23A, T24C
B4: Aptamer #1 loop 1 mutant (ssDNA)
DNA: B2 DNA with T7C, T8C, G9A, G10A

Legend:
[1] = target: pfLDH (Plasmodium falciparum lactate dehydrogenase) (Plasmodium falciparum, UniProt Q27743 Q27743:1-316); assay: fluorescence bead assay, same buffer; binding also seen by EMSA; details: chain copies: 4 inferred; label: FAM (fluorescence assay); Loop 1, G-C rich stem, Loop 2 (Mfold)
Protocol: A mixture of 16 μg of pvLDH and 10 μL of magnetic beads was incubated for one hour in 100 μL of binding buffer (20 mM Tris, 50 mM NaCl, 5 mM KCl, 5 mM MgCl2, pH 8.0), followed by washing twice with the binding buffer to remove unbound pvLDH. Then, the beads were incubated for one hour with various concentrations of FAM-labeled aptamers. The aptamers which were not reacted with pvLDH were removed by washing.
Only the FAM-labeled ssDNA aptamer which was bound to pvLDH immobilized to the magnetic beads was separated using a magnet and quantitatively analyzed by fluorescence assay (1420 Victor multilabel counter, PerkinElmer, USA). […] Kd values were also determined for pfLDH in the same manner.

[2] = target: T1, pvLDH (Plasmodium vivax lactate dehydrogenase) (Plasmodium vivax, UniProt Q4PRK9 Q4PRK9:1-316)
[3] = target: T1, pvLDH (Plasmodium vivax lactate …); assay: EMSA; details: tags: (His)6-tag, pET28a, E. coli BL21(DE3); chain copies: 4 inferred

Binder | Kd [1] [nM] | Kd [2] [nM] | binding result [3]
B1 | 49.6 | 31.7 | –
B2 | 38.7 | 16.8 | –
B3 | – | – | no binding
B4 | – | – | no binding
